The values below come from patent US20220177605A1 (University of Washington, published 2022).

Assay [1] deals with T1, CA-14 bound to cannabidiol (CA-14-CBD complex) (non-covalently bound cannabidiol (CBD); AviTag biotinylated by BirA where immobilised (ELISA)).
T1 construct: Same polypeptide as m1, pre-equilibrated with the small molecule cannabidiol; also called CBD-CA-14 complex; not shown: C-terminal AviTag and His tag
As to the kind of experiment: BLI (Octet RED96), biotinylated DB on streptavidin sensor, 1 uM CA-14 pre-equilibrated with CBD. From the text:
(§1) With the purified DB nanobodies in hand, we first sought to determine their binding affinities to the CA-14-CBD. CBD might directly bind to selected dimerization binders, which can affect the affinity measurement. To rule out this possibility, the four nanobodies were biotinylated (FIG. 7c) and immobilized on streptavidin biosensors, and the interaction with CBD was detected by BL1. Only minimal binding between CBD and the dimerization binders was detected (data not shown). Moreover, the binding-dissociation dynamics of the CA-14-CBD complex can also affect the measurement of dimerization binder affinities. To address this, the affinity was measured by a BLI assay in which the biosensor-immobilized dimerization binders were interacted with CA-14 pre-equilibrated with varied concentrations of CBD (FIG. 9a). The concentrations of the CA-14-CBD complex in equilibrium were calculated based on input CA-14 and CBD concentrations. The CA-14-CBD complex concentration was approximated to be constant because only a minimal fraction of the complex bound to the biosensor tips during the BLI assay. It was confirmed that CA-14 only interacts with the dimerization binders in the presence of CBD (FIG. 3a).
The nanobody binding kinetics was analyzed using an Octet™ RED96 system (ForteBio) and Streptavidin (SA) or Super Streptavidin (SSA) biosensors. For the anchor-binder analysis, 200 nM biotinylated anchor binders were immobilized on SSA biosensors with a binding assay buffer (1×PBS, pH 7.4, 0.05% Tween 20, 0.2% BSA, 3% methanol; Note: because CBD and THC were dissolved in methanol to make stock solutions, 3% methanol was added to the buffer to fairly compare samples and controls). Serial dilutions of CBD and THC were used for the anchor binder assays. Dissociation constants (KDS) of anchor binder-ligand interactions were calculated based on a steady-state analysis using Octet™ RED96 data analysis software.
On the technique in general: Biolayer interferometry detects binding as a change in optical thickness at a sensor tip.

Assay [2] concerns the target T1, CA-14 bound to cannabidiol (CA-14-CBD …). As to the kind of experiment: BLI; biotinylated DB-18 on streptavidin biosensors, analyte CA-14 pre-equilibrated with CBD; value printed in the scheme of ternary complex formation.
Text: as §1, with “It was confirmed that CA-14 only interacts with the dimerization binders in the presence of CBD (FIG. 3a).” left out
The nanobody binding kinetics was analyzed using an Octet™ RED96 system (ForteBio) and Streptavidin (SA) or Super Streptavidin (SSA) biosensors. […] Dissociation constants (KDS) of anchor binder-ligand interactions were calculated based on a steady-state analysis using Octet™ RED96 data analysis software.

By Kd is commonly meant a measure of binding affinity in units of concentration. A low value points to tighter binding. In general, koff refers to a measure of how fast the partners let go of each other. High values mean fast dissociation, low ones slow dissociation. What is called kon is the second-order rate constant of association. Read a low kon as slow association.

B1: dimerization binder DB-18 (VHH)
VHH: EVQLQASGGGFVQPGGSLRLSCAASGGYSRADDMGWFRQAPGKEREFVSAISFGETDSFYYADSVKGRFTISRDNSKNTVYLQMNSLRAEDTATYYCAYHNYTNMFEYWGQGTQVTVSS
modifications: AviTag biotinylated by BirA (BLI)
notes: Purified and tagged in BLI (biotinylated) and SEC; also called 1DB-18; not shown: C-terminal AviTag and His tag (purified form)
On to B1, for which, in assay [1], the affinity, expressed as Kd, was 553 nM; the koff worked out at 0.0227 s⁻¹; the kon amounted to 41000 M⁻¹ s⁻¹. This molecule also displayed a Kd in assay [2] of 553 nM.

B2: dimerization binder DB-6 (VHH)
VHH: EVQLQASGGGFVQPGGSLRLSCAASGRFSWGEEMGWFRQAPGKEREFVSAISWAATPWQYYADSVKGRFTISRDNSKNTVYLQMNSLRAEDTATYYCADEWHIGHVSYWGQGTQVTVSS
modifications: AviTag biotinylated by BirA (BLI)
notes: Purified, tagged and biotinylated in BLI; not shown: C-terminal AviTag and His tag (purified form)
In the case of B2, in assay [1], the Kd came out at 19000 nM, the koff is 0.182 s⁻¹ and the on-rate (kon) was determined as 9600 M⁻¹ s⁻¹.

B3: dimerization binder DB-11 (VHH)
VHH: EVQLQASGGGFVQPGGSLRLSCAASGTTSDNDTMGWFRQAPGKEREFVSAISWNGGRDEYYADSVKGRFTISRDNSKNTVYLQMNSLRAEDTATYYCAYQDNRSWQEYWGQGTQVTVSS
modifications: AviTag biotinylated by BirA (BLI)
notes: as for B2
Take B3: in assay [1], the affinity, expressed as Kd, was 1380 nM; the off-rate constant (koff) amounted to 0.084 s⁻¹; the on-rate constant (kon) was 61000 M⁻¹ s⁻¹.

B4: dimerization binder DB-21 (VHH)
VHH: EVQLQASGGGFVQPGGSLRLSCAASGTTYGQTNMGWFRQAPGKEREFVSAISGLQGRDLYYADSVKGRFTISRDNSKNTVYLQMNSLRAEDTATYYCAFHDFLRMWEYWGQGTQVTVSS
modifications: AviTag biotinylated by BirA (BLI)
notes: Purified and tagged in BLI (biotinylated) and SEC; the form used in the sandwich ELISA-like assay is not clearly stated (same id used for all); not shown: C-terminal AviTag and His tag (purified form)
As for B4, in assay [1], the affinity, expressed as Kd, was 56.4 nM; the koff was 0.000617 s⁻¹; the kon is 11000 M⁻¹ s⁻¹.
